From IntAct's records for PubMed 15165234

B1: Nitrogen regulatory protein P-II (Synechococcus elongatus (strain PCC 7942)), P0A3F4 (parent)
chain: MKKIEAIIRPFKLDEVKIALVNAGIVGMTVSEVRGFGRQKGQTERYRGSEYTVEFLQKLKLEIVVEDAQVDTVIDKIVAAARTGEIGDGKIFVSPVDQTIRIRTGEKNADAI
partner: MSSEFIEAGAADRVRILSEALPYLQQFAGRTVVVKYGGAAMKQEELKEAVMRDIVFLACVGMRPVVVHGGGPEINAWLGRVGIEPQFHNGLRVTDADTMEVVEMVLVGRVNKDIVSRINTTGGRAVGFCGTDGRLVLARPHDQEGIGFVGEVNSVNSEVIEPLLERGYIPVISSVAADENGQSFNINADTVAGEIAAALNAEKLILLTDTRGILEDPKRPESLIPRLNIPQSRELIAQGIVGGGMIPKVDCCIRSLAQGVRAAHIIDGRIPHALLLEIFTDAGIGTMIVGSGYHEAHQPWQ

Variants of: B1
Settings: with argb_syne7 argB

Row | effect of a mutation on the interaction | Variant
1 | decreasing interaction | S49A
2 | decreasing interaction | S49E
